# Source: the nanobody polyreactivity screen of Harvey et al. (2022)
# Experiment: yeast display, Sf9 membrane polyspecificity reagent, FACS + sequencing; frameworks hold sequencing errors
# How it was run: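 Genes from sorted yeast were amplified by colony PCR, read by MiSeq 2 × 250 sequencing and filtered on CDR length. These cells carried a synthetic nanobody library in Saccharomyces cerevisiae BJ5465 and were sorted by FACS into low and high (top ~1%) gates on anti-HA and streptavidin fluorescence. Polyreactivity is labelled according to the gate of origin.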
row,Sequence,polyreactivity (PSR sort gate)
1,QVQLVESRGGLVQAGGSLRLSFAASGIIFADYAMGWYRQAPGKERELVAAISSGDSTYYADSVKGRFTISRDNAKNTVYLQMNSLKPEDTAVYYCAARLYRNKYRIAKMNYWGQGTQVTVSS,high polyreactivity
2,QVQLVESRGGLVQAGGSLRLSSAASGFTFHGNAMRWYRQAPGKERQLVAGISSSGASTYYADSVKGRFTISRDNAKNTVYLQMNILKPEDTAVYYCAVRYYGRYLRYNYCGQGTQVTVSS,high polyreactivity
3,QVQLVESRGGLVQAGGSLRLSSAASGFTFRYYLMGWYRQAPRKERELVAAITWSGGTTNYADSVKGRFTISRDNAKNSVYLQMNSLKPEDTAVYYCNAARSRGANRVPPYRLYYWGQGTQVTVSS,low polyreactivity
4,QVQLVESRGGLVQAGGSLRLSSAASGITFGRNPMGWYRQAPGKERELVAAIESGGNTYADSVKGRFTISRDNAKNTVYLQMNSLKPEDTAVYYCAVDGGEFSSYGYWGQGTQVTVSS,low polyreactivity
5,QVQLVESRGGLVQAGGSLRLTCAASGSTFAPNTMGWYRQAPGQERELVARITSSDGSTTYADSVKGRFTISRDNAKTTVYLQMNSLKPEHTAVYYCAADYGRRWGYDYWGQGTQVTVSS,low polyreactivity
6,QVQLVESRGGLVQAGRSLRLSCAASGRTFHRNTLGRYRQAPGKERELVAAITGDGRTNYADSVKGRFTISRDNAKNTVYLLMNSLKPEDTAGYYCAAQYYYSEAGRDYWGQGTQVTVSS,low polyreactivity
7,QVQLVESRGRLLQAGGSLRLSCAASGRISHINAMGCSIQAPGKERELVAGIRGRGGSTYYADSVKGRFTISRDNAKNSVYLQMNSLKPEDTEVYYCAARGWELIRTDPFDYWGQGSQVTVSS,high polyreactivity
8,QVQLVESRGVLDQARGSLRLSCAATGSIFKPYAMGWYRQEPGKEMELVAAISGIGGSTYYADSVKGRFTIARDNAKNTVYLQMNSLKPEVTAVYYCAALTGFYNLRPYGYWGQGTQVTVSS,high polyreactivity
9,QVQLVESRGVLVQAGGSIRLSCAASGFSIDYYAMGWYRPAPGKERELVAAITTSGGRTYYADSVKGRFTIARDYAKNTVYLQMNSLKPEDTAVYYCAVVTWIYGTRFNYWGQGTQVTVSS,high polyreactivity
10,QVQLVESRVGLVKAGGSLRLSCAASGITLYWYAMGWYRQAPGKESELVAAISRRGGTTYYSDSVKGRFTISRDNAKNTVYLQMNILKPEDTAVYYCAKAPDTQTSWSRQEGNYWGQGSQVTVSS,low polyreactivity
11,QVQLVESSGGLVQAGGSLRLSCAASGSIFLYNAMGWYRKAPGTEREMVAAISKSGGSTYYADSVKGRFTISRDNAKYTVYLQMNSLKPEDTAVYYCAAGYGRRIRYGCEYDYWGQGTQVTVSS,low polyreactivity
12,QVQLVESVGALVQARGSLRLSCAASGFTFRPYAMGWYRQAPGKERELVAAITRSGGSTYYADSVKGRFTISRDTAKNTVYLQMNSLKPEDTAVYYCAARFARSEYDYWGQGTQVTVSS,high polyreactivity
13,QVQLVESVGCLVQAGGSLRLSCAASGRTVVYGYAMGWYRQDPGKERELVAAITSGGSTNYADSVKGRFTISRDNAKNTVYLQMNSLNPEDSAVYYCNAGTVLISTYDYWGQGTQVTVSS,high polyreactivity
14,QVQLVESVGGFVQAGGSLRLSCAASGRIFGTYAMGWYRQAPGKERELVAAITRGGTTYYADSVKRRFTISRDNAKNTVYLQMNSLKPEDTAVYDCATGPAIRYDYWGQGTQVTVSS,low polyreactivity
15,QVQLVESVGGIVQAGGSLRLSCDASGRTFGRSAMGSYRQAPGKERELVAGISRAGDSTHYAESVKGRCTISRDNAKNTVYLQMNSLKPEDTAVYYCNKETPTIGARKYEYWGQGTQVTVSS,low polyreactivity
16,QVQLVESVGGIVQAGGSLRLTCAASGSIIKRNAMGWYRQAPGKERELVATISSGDGSTRYADSVKGRFTISRDNAKNTVYLQMNSLKPEDTAVYYCARDFTYTYYRWKTPYRIGHDYWGQGTQVTVSS,low polyreactivity
17,QVQLVESVGGLDQAGGSLRLSCAASGFILSWYAMGWYRQAPGKERELVAGISRRGGSTYYADSVTGRFTISRDNAKNTVYLQMNSLKPEDTAVYYCNALYDEWSVSTGDYWGQGTQVTVSS,high polyreactivity
18,QVQLVESVGGLDQAGGSLRLSCAASVFTFNIYVMGWYRQAPGKERELVAAISTSTGSTYYADSVKGRFTISRDNAKNTVYLQMNSLKPQDTAVYYCNADDYDLRFDYWGQGTQVTVSS,low polyreactivity
19,QVQLVESVGGLDQAGGTLRLSCAASALIFAYYAMGGYRQAPGKERELVAAITSSGTSTYYADSVKGRFTISRDNAKNTVYLQMNSLTPEDTAVYYCAASDRRLTGVGADEYWGQGTQVTVSS,high polyreactivity
20,QVQLVESVGGLGQAGGSLRLSCAASGSIFVLNARGWSRQAPGKERELVAGITYSGGSTYYADSVKGRFTISRDNATNTVYLQMNSLKPEDTAVYSCAAPVRRYPYPGRFYYWGQGTQVTVSS,low polyreactivity
21,QVQLVESVGGLGQARVRLRLSCAASGITFYRYAMGWYRQAPGKERELVAAITSRGTSTYYADSVKGRFTISRDNAKNTVYLQMNSLKPEDTAVYYCAAVLFVGDGGYDYWGQGTQVTVSS,high polyreactivity
22,QVQLVESVGGLVLAGASLRLSCAASGSTYAPNAMGWYRQAPGKERELVAVITSGDSTYYAVSVKGRFTISRDNAKNTVYLQMNSLKPEDTAVYYCASETYGTPGYYYWGQGTQVTVSS,low polyreactivity

row,Sequence,polyreactivity (PSR sort gate)
1,QVQLVESVGGLVQAGCILRLSCAPSGRIFGVNAMGWYRQAPGKVRELVAAIDWSDGSTYYADSVKGRFTISRDNAKNTVYLQMNSLKPEDTAVYYCAALPSYLAAQYGDDYWGQGTQVTVSS,low polyreactivity
2,QVQLVESVGGLVQAGCSLRLSCGASGRIFPWYAMGWYRPAPGKERELVAAIRWRGGGTYYADSVKGRFTISRDNAKNTVYLQMNSLKPEDTAVYYCSARRPAKGMGYWGQGTQVTVSS,high polyreactivity
3,QVQLVESVGGLVQAGGCLRLSCDASGFIFTYVMGWYRQAAGKERELVAVITNGGSTYYADSVKGRFTISRDNAKNSFYLQMNSLKPEDTAVYYCAARDRFRYDAYYYWGLGTQVTVSS,high polyreactivity
4,QVQLVESVGGLVQAGGILRLSSAASGRIFYFYAMGWYRQAPGKERELVAGINWNGGSTHYADSVKGRFTISRDNAKNTVYLQMNSLKPEDTAVYYCAADGYYGQYGGHMGYWGQGTQVTVSS,high polyreactivity
5,QVQLVESVGGLVQAGGILRLSSAASGSTFERYAMGWDRQAPGKEREFVATINWGGGSTYYADSVKGRFTISRDNAKKTVYLQMNSLKPEDTAVDYCNAYVLYQSWRFSYDYWGQGTHVTVSS,low polyreactivity
6,QVQLVESVGGLVQAGGRLRLSSAASGFTFAFHAMGSYRQAPGKERELVAAISCSGVSTYYADSVKWRFTLSRDNEKNTDYLQMNSLKPEDTAVKYCAVGAVASSHRAGGKRHEYWGQGTQVTLSS,low polyreactivity
7,QVQLVESVGGLVQAGGSHRLSCAASGRTFQSNGMGWYRHAPGKERELDAAITWSSGTTYYADSVKGRFTISRDNAKNTVYLQMNSLKPEDTAVYYCAADCGHRNCLYYSGFGYWGQGTQVTVSS,low polyreactivity
8,QVQLVESVGGLVQAGGSHRLSCAASGSIFGYYTMGWYRQAPGKERELVAAITYSGGSTYYADSVKGRFTISRDNAKNTVYLQMNSLKPEDTAVYYCNAKSAAHRYVRRHDYWGLGTQVTVSS,low polyreactivity
9,QVQLVESVGGLVQAGGSHRLSCAASGSTFYRYAMGWYRQAPGKERELVAAISRSGGTTYYADSVKGRFTISRDNAKNTVYLQMNSLKPDDTAVYYCNARGRYEYGYWGQGTEVTVSS,high polyreactivity
10,QVQLVESVGGLVQAGGSLRISCAASGRITQIYAMGWSRQAPRKEWELVARITSTDSTYYADSVKGRFTISRDNAKKTVYLKMNSLTPEDTAVYYCAASWWSPYDYWGQGTQVTVSS,low polyreactivity
11,QVQLVESVGGLVQAGGSLRISCAASGSTFPWYAMGWYRQAPGKERELVASITSGTTTNYADSVKGRFTISRDNAKNTVYLQRNSLKPEDTADYYCAASWVYQYDYWGQGTQVSVSS,low polyreactivity
12,QVQLVESVGGLVQAGGSLRISCAASGSTLTRNTMGWYRPAPGKEREFVATITRSGGSTYYADSVKGRFTISRDNAKNTVYLQMNSLKPEDTAVYYCAVRRQTFRYVYPGMDYWGQGTQVTVSS,high polyreactivity
13,QVQLVESVGGLVQAGGSLRLICAASGFIFWDYAMGSDRQAPGKERELVAAISDSGGDTYYAESVKGRFTISRDNAKNTVYLQMNSLKPEDTAVYFCAADLGRNYDYWGQGTQVTVLS,low polyreactivity
14,QVQLVESVGGLVQAGGSLRLICAASGLTFEWYTMGWYRQATGNERELVAVITVSGSSTYYADSVKGRFTISRDNAKNTVYLQMNSLKPEDTAVYYCARKTYYTGDFLGREYGYWGQGTQVTVSS,low polyreactivity
15,QVQLVESVGGLVQAGGSLRLICAASGSIFYPNAMGWYRQAPGKERELVAAISYSGTSTNYADSVKGRFTISRDNAKNTVYLQMNSLKPEDTAVYYCAARGFPHRRHSLYDYWGQGTQVTVSS,low polyreactivity
16,QVQLVESVGGLVQAGGSLRLICAASGSTFRVNAIGWYRQAPGKEREFVAAITGNAGSTYYADSVKGRFTISRDNAKNTVYLQMNSLKPEDTAVYYCAAGLPGYDGDYWGQGTQVTVSS,low polyreactivity
17,QVQLVESVGGLVQAGGSLRLSCAASGFIFSGNTMGWYRQAPGKERELVAAITSGGGRTYYADSVKGRFTISRDNAKNTVYLQMNSLKPEDTAVYYCNTAFVYEYDYWGQGTQVTVSS,high polyreactivity
18,QVQLVESVGGLVQAGGSLRLSCAASGFIFWPYAMGWSRQAPGKERELVAGITSDGSTHYADSVKGRFTISRDNAKNTVYLQINSLKPQDTAVYYCAKGIRYGYRVRVYYWGQGTQVTVSS,high polyreactivity
19,QVQLVESVGGLVQAGGSLRLSCAASGFIFYGYAMGWYRQAPGKERELVAAISRSGTSTYYADSVKGRFTISRDYAKNTVYLQMNSVKPDDTAVYYCDADYVGWKWGSRGAIYKHYYWGQGTQVTVSS,high polyreactivity
20,QVQLVESVGGLVQAGGSLRLSCAASGFIIRYYAMGWYRQAPGKERELVAVISSNGARTSYADSVKGRFTISRDNAKNTVYLQMNSLKPEDTAVYYCNARAWSRFPPVGHDYWGQGTQVTVSS,high polyreactivity
21,QVQLVESVGGLVQAGGSLRLSCAASGFIIYGYGMGWYRQAPGKERELVAAISARSTRTYYADSVKGRFTISRDNAKNTVYLQMNSLKPEDTAVYYCAAVRGPTYRNDNYGYWGQGTQVTVSS,high polyreactivity
